Reference: US20250332254A1, “METHODS FOR TREATING PATIENTS WITH FAMILIAL HYPERCHOLESTEROLEMIA” (REGENERON PHARMACEUTICALS, INC., priority 2016, published 2025)

Tests used:
ANGPTL3 [1] = target: T1, ANGPTL3 (Homo sapiens, UniProt Q9Y5C1); conditions: Dewey, et al. 2017; cited from earlier work
T1 construct: Angiopoietin-like protein 3 (ANGPTL3) is a secreted protein expressed in the liver; from tissue; host or cells: in vivo, human subjects; circulating protein secreted by the liver
T1 sequence (Q9Y5C1 17-460): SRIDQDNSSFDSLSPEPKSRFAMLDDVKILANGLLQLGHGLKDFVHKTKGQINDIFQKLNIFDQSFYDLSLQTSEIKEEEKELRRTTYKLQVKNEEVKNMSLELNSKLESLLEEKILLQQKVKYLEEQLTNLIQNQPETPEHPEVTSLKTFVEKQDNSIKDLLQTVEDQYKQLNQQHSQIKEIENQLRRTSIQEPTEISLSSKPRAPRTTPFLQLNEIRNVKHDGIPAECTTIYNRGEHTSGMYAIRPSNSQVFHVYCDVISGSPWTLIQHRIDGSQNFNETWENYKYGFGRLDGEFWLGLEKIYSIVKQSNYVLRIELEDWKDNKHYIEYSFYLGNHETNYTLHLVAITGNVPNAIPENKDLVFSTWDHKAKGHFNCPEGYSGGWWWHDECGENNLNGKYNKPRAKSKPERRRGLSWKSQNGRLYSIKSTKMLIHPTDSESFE

ANGPTL3 [2] = target: T1, ANGPTL3; assay: Phase 1 first-in-human ascending single-dose placebo-controlled study of evinacumab SC or IV in subjects with elevated TGs and/or LDL-C; type: in vivo
Description: Methods: The instant study constituted a phase 1, first-in-human, ascending single-dose, placebo (PBO)-controlled, double-blind study of evinacumab administered subcutaneously (SC) or intravenously (IV) in subjects with elevations of TGs (150≤TG≤450 mg/dL) and/or LDL C (≥100 mg/dL). Eighty-three subjects were randomized into the study (9 in PBO SC; 12 in PBO IV; 11 in 75 mg SC: 12 in 150 mg SC, 9 in 250 mg SC, 10 in 5 mg/kg IV, 9 in 10 mg/kg IV, and 11 in 20 mg/kg IV).

ANGPTL3 [3] = target: T2, ANGPTL3 (Mus musculus, UniProt Q9R182); conditions: mouse model; Wang, et al. 2015; cited from earlier work
T2 construct: host or cells: mouse, in vivo
T2 sequence (Q9R182 17-455): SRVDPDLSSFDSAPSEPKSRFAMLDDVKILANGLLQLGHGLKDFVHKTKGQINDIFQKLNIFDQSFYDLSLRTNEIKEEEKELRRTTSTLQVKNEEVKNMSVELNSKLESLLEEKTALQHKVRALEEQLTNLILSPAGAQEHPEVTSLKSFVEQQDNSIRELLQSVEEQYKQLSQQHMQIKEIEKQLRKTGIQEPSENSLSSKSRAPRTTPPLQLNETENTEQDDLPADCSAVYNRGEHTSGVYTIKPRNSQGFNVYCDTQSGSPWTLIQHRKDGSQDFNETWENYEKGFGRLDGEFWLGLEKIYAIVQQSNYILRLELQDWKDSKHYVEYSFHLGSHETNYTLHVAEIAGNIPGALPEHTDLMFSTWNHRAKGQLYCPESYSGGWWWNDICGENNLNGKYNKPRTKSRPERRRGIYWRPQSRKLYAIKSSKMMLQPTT

ANGPTL3 [4] = target: T1, ANGPTL3; assay: Phase 2 open-label study of evinacumab in patients with homozygous familial hypercholesterolemia on concomitant lipid-lowering therapies; type: in vivo; conditions: for LDL-C, Mean of Percent Change from Baseline ± SE (%) / Non-HDL-C, Mean of Percent Change from Baseline ± SE (%) / Apolipoprotein B, Mean of Percent Change from Baseline ± SE (%): 250 mg SC wk 0 + 15 mg/kg IV wk 2
Description: Patients: The nine patients (5 men, 4 women) were selected based on their genotypes and phenotypes. All presented a history of LDL-C >500 mg per deciliter or >400 mg per deciliter after portacaval shunt, premature atherosclerosis (8 of 9 with prior history of cardiovascular events) and severe xanthomatosis, and were homozygotes or compound heterozygotes for known FH-causing LDLR mutations (Hobbs, et al. 1992 Hum Mutat 1:445-66). Three patients were null homozygotes. All patients were on maximally tolerated lipid-lowering therapy.
Study Treatment: The patients were required to maintain their usual background lipid-lowering therapy and diet and exercise regimens throughout the study. All patients received a single open-label dose of evinacumab 250 mg subcutaneously in the abdominal area during the baseline visit and a single 15 mg per kilogram intravenous dose of evinacumab 2 weeks later. The sterile, lyophilized evinacumab drug product was supplied in a 5-ml single-use glass vial for reconstitution to a concentration of 100 mg per milliliter for subcutaneous doses and 50 mg per milliliter for intravenous doses. Patients were followed for a period of up to 24 weeks after the intravenous dose to allow for washout of evinacumab, and were offered enrollment in an extension study.
Pharmacodynamic Assessment: Fasting blood samples were collected before administration of study drug, at baseline and at regular intervals during the open-label treatment period and safety follow-up period, for measurement of LDL-C, non-HDL-C, total cholesterol, HDL-C, apolipoprotein B, lipoprotein (a), triglycerides, apolipoprotein A-1, and other parameters. The primary endpoint was the mean ±standard deviation (SD) percent change in LDL-C from baseline to week 4.

[5] = 3 homozygous null patients, through week 12

- TG, median % change from baseline (maximum TG reductions) (ANGPTL3 [2]; Day 4, across the evinacumab doses (75-250 mg SC, 5-20 mg/kg IV)): −1.0% to −75.0%
- LDL-C, mean % changes from baseline (ANGPTL3 [2]; Day 11, across the evinacumab doses (75-250 mg SC, 5-20 mg/kg IV)): −3.4% to −25.5%
- duration of LDL reduction (ANGPTL3 [2]; after 20 mg/kg IV): 43 days
- duration of TG reduction (ANGPTL3 [2]; after 20 mg/kg IV): 64 days
- effect on HDL-C, VLDL-C, total cholesterol, non-HDL-C, ApoA1, and ApoB (ANGPTL3 [2]; human, in vivo): Dose-dependent reductions
- effect on Lp(a) (ANGPTL3 [2]; human, in vivo): no apparent effects
- effect on major lipid fractions (ANGPTL3 [2]; normal healthy volunteers): reduced the three major lipid fractions
- mean±SD peak reduction in LDL-C (ANGPTL3 [4]; [5]): −48±13%
- range of peak reduction in LDL-C (ANGPTL3 [4]; [5]): −60% to −33%
- absolute reductions in LDL-C achieved (ANGPTL3 [4]; HoFH patients): 150 to 200 mg/dL
- LDL-C, Mean of Percent Change from Baseline ± SE (%) (ANGPTL3 [4]; HoFH patients, Day 4): −12.8 ± 3.7%
- Non-HDL-C, Mean of Percent Change from Baseline ± SE (%) (ANGPTL3 [4]; HoFH patients, Day 4): −13.6 ± 3.6%
- LDL-C, Mean of Percent Change from Baseline ± SE (%) (ANGPTL3 [4]; HoFH patients, Week 1): −24 ± 7.0%
- Non-HDL-C, Mean of Percent Change from Baseline ± SE (%) (ANGPTL3 [4]; HoFH patients, Week 1): −24.1 ± 6.7%
- Apolipoprotein B, Mean of Percent Change from Baseline ± SE (%) (ANGPTL3 [4]; HoFH patients, Week 2): −24.2 ± 7%
- LDL-C, Mean of Percent Change from Baseline ± SE (%) (ANGPTL3 [4]; HoFH patients, Week 2): −30.2 ± 8.1%
- Non-HDL-C, Mean of Percent Change from Baseline ± SE (%) (ANGPTL3 [4]; HoFH patients, Week 2): −29.6 ± 7.8%
- Apolipoprotein B, Mean of Percent Change from Baseline ± SE (%) (ANGPTL3 [4]; HoFH patients, Week 3): −38.6 ± 7.3%
- LDL-C, Mean of Percent Change from Baseline ± SE (%) (ANGPTL3 [4]; HoFH patients, Week 3): −41.4 ± 8.3%
- Non-HDL-C, Mean of Percent Change from Baseline ± SE (%) (ANGPTL3 [4]; HoFH patients, Week 3): −41.6 ± 8%
- Apolipoprotein B, Mean of Percent Change from Baseline ± SE (%) (ANGPTL3 [4]; HoFH patients, Week 4): −45.9 ± 6.1%
- LDL-C, Mean of Percent Change from Baseline ± SE (%) (ANGPTL3 [4]; HoFH patients, Week 4): −49.2 ± 7.7%
- Non-HDL-C, Mean of Percent Change from Baseline ± SE (%) (ANGPTL3 [4]; HoFH patients, Week 4): −48.9 ± 7.4%
- Apolipoprotein B, Mean of Percent Change from Baseline ± SE (%) (ANGPTL3 [4]; HoFH patients, Week 5): −42.3 ± 4.7%
Substance: evinacumab: human anti-ANGPTL3 monoclonal antibody; HCVR SEQ ID NO:1, LCVR SEQ ID NO:5
- tolerability and LDL-C effect in first-in-human study of healthy human volunteers (ANGPTL3 [1]): shown to reduce LDL-C and was also well tolerated
- headache (TEAE), number of subjects (ANGPTL3 [2]; evinacumab group): 7
- headache (TEAE), percent of subjects (ANGPTL3 [2]; evinacumab group): 11.3%
- subjects reporting at least one treatment emergent adverse event (TEAE), number (ANGPTL3 [2]; evinacumab group): 32 subjects
- subjects reporting at least one treatment emergent adverse event (TEAE), percent (ANGPTL3 [2]; evinacumab group): 51.6%
- increases in ALT/AST [>2X ULN], number of subjects (ANGPTL3 [2]; evinacumab-treated): 5 treated subjects
- effect on TGs, LDL-C and HDL-C (ANGPTL3 [2]; healthy subjects with moderately elevated TGs and/or LDL-C): rapid and substantial reductions in TGs, as well as reductions in LDL-C and HDL-C
- discontinuation due to a TEAE (ANGPTL3 [2]; human, in vivo): no subject discontinued due to a TEAE
- dose-related safety trend (ANGPTL3 [2]; human, in vivo): no dose-related safety trend
- serious TEAEs (ANGPTL3 [2]; human, in vivo): None were serious
- tolerability (ANGPTL3 [2]; single SC or IV dose, subjects with moderately elevated TGs and/or LDL-C): generally well-tolerated
- number of VLDLs secreted by the liver and character of VLDL particles (ANGPTL3 [3]): did not affect the number of VLDLs secreted by the liver, but qualitatively altered the VLDL particles that were made
- tolerability (ANGPTL3 [4]; 250-mg subcutaneous injection at baseline and 15 mg per kilogram intravenous infusion at week 2): well tolerated
